According to publication PMC8173049:
pKd: −log10 of the molar value.

Tests used:
[1] = target: HAdV-B35 capsid (replication-defective, E1-deleted vector particle with a YFP expression cassette) (human adenovirus B35); experiment: SPR; BIAcore 3000; HAdV particles amine-coupled to a CM5 chip (3,500-4,000 RU, diluted in acetate buffer pH 4); lactoferrin 6.25-200 nM injected at 30 µl/min, 180 s association, 600 s dissociation; HBS-EP buffer (10 mM HEPES, 150 mM NaCl, 3 mM EDTA, 0.005% polysorbate 20, pH 7.4); bivalent fitting model
[2] = target: HAdV-C5 capsid (replication-defective, E1-deleted vector particle with a GFP expression cassette) (human adenovirus C5) (UniProt P04133); experiment: as above

human lactoferrin (natural protein)
pKd [1]: 4.27 | pKd [2]: 6.10
